From patent US20220105163A1 come the findings set out here.

For this experiment, the target named is Recombinant human IL-6 (human) (UniProt P05231). Briefly: cell-based or functional assay.
Sequence of Recombinant human IL-6 (human) (P05231 30-212 limits assumed): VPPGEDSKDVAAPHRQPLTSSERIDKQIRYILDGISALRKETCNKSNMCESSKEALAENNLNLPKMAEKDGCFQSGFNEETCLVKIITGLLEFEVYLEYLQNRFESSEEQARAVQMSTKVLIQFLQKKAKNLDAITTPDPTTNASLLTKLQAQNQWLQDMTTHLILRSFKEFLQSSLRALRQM

B1: ALD518 (antibody, INN chains, looked up, V domains shown)
VH: EVQLVESGGGLVQPGGSLRLSCAASGFSLSNYYVTWVRQAPGKGLEWVGIIYGSDETAYATSAIGRFTISRDNSKNTLYLQMNSLRAEDTAVYYCARDDSSDWDAKFNLWGQGTLVTVSS
VL: AIQMTQSPSSLSASVGDRVTITCQASQSINNELSWYQQKPGKAPKLLIYRASTLASGVPSRFSGSGSGTDFTLTISSLQPDDFATYYCQQGYSLRNIDNAFGGGTKVEIK
B1: the IC50 (µg/mL), IL-6 induced TF-1 proliferation came to 0.629 µg/mL.
